Ho/Con_3a and He/Con_3a data for 55 molecules are collected here from US20150344570A1 (published 2015).

B1: GpH7-B3 variant H268_02A/GpL16-k0 (antibody, human IgG1, kappa)
heavy: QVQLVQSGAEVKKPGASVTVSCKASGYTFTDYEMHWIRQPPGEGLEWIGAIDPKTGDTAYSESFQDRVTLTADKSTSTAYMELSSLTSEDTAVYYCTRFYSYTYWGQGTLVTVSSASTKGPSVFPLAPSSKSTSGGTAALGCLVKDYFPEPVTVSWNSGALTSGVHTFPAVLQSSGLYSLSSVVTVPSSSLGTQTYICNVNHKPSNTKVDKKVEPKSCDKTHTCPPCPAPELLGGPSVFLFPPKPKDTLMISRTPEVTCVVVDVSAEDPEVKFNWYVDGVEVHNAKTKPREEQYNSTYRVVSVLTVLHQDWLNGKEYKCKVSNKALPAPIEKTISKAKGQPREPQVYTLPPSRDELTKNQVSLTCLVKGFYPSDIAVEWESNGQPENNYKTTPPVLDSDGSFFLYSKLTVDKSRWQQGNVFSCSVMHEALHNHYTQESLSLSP
light: DIVMTQSPLSLPVTPGEPASISCQASESLVHSNRNTYLHWYLQKPGQSPQLLIYKVSNRFSGVPDRFSGSGSGTDFTLKISRVEAEDVGVYYCSQNTHVPPTFGQGTKVEIERTVAAPSVFIFPPSDEQLKSGTASVVCLLNNFYPREAKVQWKVDNALQSGNSQESVTEQDSKDSTYSLSSTLTLSKADYEKHKVYACEVTHQGLSSPVTKSFNRGEC
notes: both H chains altered; also called Ho Ab H268_02A
B2: GpH7-B3 variant I336_02A/GpL16-k0 (antibody, human IgG1, kappa)
heavy: not shown
light: B1 light
notes: both H chains altered; also called Ho Ab I336_02A
B3: GpH7-B3 variant E333_20W/GpL16-k0 (antibody, human IgG1, kappa)
heavy: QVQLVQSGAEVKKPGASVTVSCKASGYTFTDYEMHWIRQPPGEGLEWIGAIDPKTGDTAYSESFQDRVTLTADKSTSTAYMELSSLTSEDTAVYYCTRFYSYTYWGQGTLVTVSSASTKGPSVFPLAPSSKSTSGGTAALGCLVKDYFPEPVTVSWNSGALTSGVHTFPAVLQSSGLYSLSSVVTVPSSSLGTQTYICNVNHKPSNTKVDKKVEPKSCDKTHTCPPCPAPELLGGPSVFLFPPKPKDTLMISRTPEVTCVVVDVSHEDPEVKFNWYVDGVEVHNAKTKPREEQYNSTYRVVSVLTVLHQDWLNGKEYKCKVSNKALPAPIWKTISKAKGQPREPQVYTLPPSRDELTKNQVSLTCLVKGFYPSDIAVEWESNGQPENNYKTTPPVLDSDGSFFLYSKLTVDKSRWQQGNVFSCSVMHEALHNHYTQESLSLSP
light: B1 light
notes: both H chains altered; also called Ho Ab E333_20W
B4: GpH7-B3 variant S337_14T/GpL16-k0 (antibody, human IgG1, kappa)
heavy: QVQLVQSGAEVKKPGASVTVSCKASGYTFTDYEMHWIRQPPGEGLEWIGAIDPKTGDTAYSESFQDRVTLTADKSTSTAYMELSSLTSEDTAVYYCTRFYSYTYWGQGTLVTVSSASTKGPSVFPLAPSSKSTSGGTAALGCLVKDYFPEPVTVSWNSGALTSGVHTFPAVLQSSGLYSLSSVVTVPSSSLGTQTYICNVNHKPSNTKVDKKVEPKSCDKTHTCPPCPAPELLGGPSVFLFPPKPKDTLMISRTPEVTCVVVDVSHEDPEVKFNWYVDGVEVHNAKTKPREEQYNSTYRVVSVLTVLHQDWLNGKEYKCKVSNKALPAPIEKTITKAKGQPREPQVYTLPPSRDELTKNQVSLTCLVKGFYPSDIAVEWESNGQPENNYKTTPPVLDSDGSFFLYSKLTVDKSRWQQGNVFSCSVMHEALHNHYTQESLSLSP
light: B1 light
notes: both H chains altered; also called Ho Ab S337_14T
B5: GpH7-B3 variant S337_09D/GpL16-k0 (antibody, human IgG1, kappa)
heavy: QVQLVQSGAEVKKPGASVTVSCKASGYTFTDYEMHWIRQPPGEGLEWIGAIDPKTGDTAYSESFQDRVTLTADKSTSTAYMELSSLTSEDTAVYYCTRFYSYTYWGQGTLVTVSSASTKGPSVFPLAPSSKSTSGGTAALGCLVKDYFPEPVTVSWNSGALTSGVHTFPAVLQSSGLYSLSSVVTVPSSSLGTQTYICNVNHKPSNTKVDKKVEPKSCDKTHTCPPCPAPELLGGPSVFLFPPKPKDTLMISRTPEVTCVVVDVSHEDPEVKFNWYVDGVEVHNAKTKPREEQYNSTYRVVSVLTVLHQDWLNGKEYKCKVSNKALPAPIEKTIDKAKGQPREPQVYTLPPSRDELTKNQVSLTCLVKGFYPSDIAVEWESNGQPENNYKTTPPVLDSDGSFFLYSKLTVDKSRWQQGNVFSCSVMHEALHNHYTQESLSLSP
light: B1 light
notes: both H chains altered; also called Ho Ab S337_09D
B6: GpH7-B3 variant S337_10E/GpL16-k0 (antibody, human IgG1, kappa)
heavy: not shown
light: B1 light
notes: both H chains altered; also called Ho Ab S337_10E
B7: GpH7-B3 variant S337_04F/GpL16-k0 (antibody, human IgG1, kappa)
heavy: not shown
light: B1 light
notes: both H chains altered; also called Ho Ab S337_04F
B8: GpH7-B3 variant T335_15Y/GpL16-k0 (antibody, human IgG1, kappa)
heavy: not shown
light: B1 light
notes: both H chains altered; also called Ho Ab T335_15Y
B9: GpH7-B3 variant S324_16H/GpL16-k0 (antibody, human IgG1, kappa)
heavy: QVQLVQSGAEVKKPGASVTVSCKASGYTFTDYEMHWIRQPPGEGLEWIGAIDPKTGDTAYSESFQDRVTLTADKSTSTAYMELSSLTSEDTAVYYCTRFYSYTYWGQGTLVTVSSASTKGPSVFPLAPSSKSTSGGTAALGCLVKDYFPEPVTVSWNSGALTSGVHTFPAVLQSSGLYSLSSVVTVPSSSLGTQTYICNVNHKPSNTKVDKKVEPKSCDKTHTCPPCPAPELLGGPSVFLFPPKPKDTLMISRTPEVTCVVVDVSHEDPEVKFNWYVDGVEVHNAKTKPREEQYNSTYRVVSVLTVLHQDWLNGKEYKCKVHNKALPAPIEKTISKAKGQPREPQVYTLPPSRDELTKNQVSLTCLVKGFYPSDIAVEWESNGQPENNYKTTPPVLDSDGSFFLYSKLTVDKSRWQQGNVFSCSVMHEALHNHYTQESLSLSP
light: B1 light
notes: both H chains altered; also called Ho Ab S324_16H
B10: GpH7-B3 variant S337_20W/GpL16-k0 (antibody, human IgG1, kappa)
heavy: not shown
light: B1 light
notes: both H chains altered; also called Ho Ab S337_20W
B11: GpH7-B3 variant P238_09D/GpL16-k0 (antibody, human IgG1, kappa)
heavy: not shown
light: B1 light
notes: both H chains altered; also called Ho Ab P238_09D
B12: GpH7-B3 variant S324_15Y/GpL16-k0 (antibody, human IgG1, kappa)
heavy: not shown
light: B1 light
notes: both H chains altered; also called Ho Ab S324_15Y
B13: GpH7-B3 variant G236_20W/GpL16-k0 (antibody, human IgG1, kappa)
heavy: not shown
light: B1 light
notes: both H chains altered; also called Ho Ab G236_20W
B14: GpH7-B3 variant L234_09D/GpL16-k0 (antibody, human IgG1, kappa)
heavy: not shown
light: B1 light
notes: both H chains altered; also called Ho Ab L234_09D
B15: GpH7-B3 variant S337_15Y/GpL16-k0 (antibody, human IgG1, kappa)
heavy: not shown
light: B1 light
notes: both H chains altered; also called Ho Ab S337_15Y
B16: GpH7-B3 variant T335_16H/GpL16-k0 (antibody, human IgG1, kappa)
heavy: not shown
light: B1 light
notes: both H chains altered; also called Ho Ab T335_16H
B17: GpH7-B3 variant I336_06M/GpL16-k0 (antibody, human IgG1, kappa)
heavy: not shown
light: B1 light
notes: both H chains altered; also called Ho Ab I336_06M
B18: GpH7-B3 variant L234_07I/GpL16-k0 (antibody, human IgG1, kappa)
heavy: not shown
light: B1 light
notes: both H chains altered; also called Ho Ab L234_07I
B19: GpH7-B3 variant L234_15Y/GpL16-k0 (antibody, human IgG1, kappa)
heavy: not shown
light: B1 light
notes: both H chains altered; also called Ho Ab L234_15Y
B20: GpH7-B3 variant E333_04F/GpL16-k0 (antibody, human IgG1, kappa)
heavy: not shown
light: B1 light
notes: both H chains altered; also called Ho Ab E333_04F
B21: GpH7-B3 variant L234_04F/GpL16-k0 (antibody, human IgG1, kappa)
heavy: not shown
light: B1 light
notes: both H chains altered; also called Ho Ab L234_04F
B22: GpH7-B3 variant S267_09D/GpL16-k0 (antibody, human IgG1, kappa)
heavy: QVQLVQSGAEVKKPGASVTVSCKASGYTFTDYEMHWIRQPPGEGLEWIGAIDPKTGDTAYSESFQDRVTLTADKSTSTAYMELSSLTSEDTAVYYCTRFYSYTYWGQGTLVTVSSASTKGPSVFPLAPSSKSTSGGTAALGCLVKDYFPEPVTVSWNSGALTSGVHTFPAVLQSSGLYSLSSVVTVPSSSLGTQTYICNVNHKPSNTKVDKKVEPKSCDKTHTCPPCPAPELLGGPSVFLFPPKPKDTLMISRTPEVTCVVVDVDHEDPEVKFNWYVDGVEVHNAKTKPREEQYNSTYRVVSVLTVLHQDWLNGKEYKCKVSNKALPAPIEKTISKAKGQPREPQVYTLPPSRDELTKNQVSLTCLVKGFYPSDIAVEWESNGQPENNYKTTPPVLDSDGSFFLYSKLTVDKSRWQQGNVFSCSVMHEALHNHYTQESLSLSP
light: B1 light
notes: both H chains altered; also called Ho Ab S267_09D
B23: GpH7-B3 variant E333_02A/GpL16-k0 (antibody, human IgG1, kappa)
heavy: not shown
light: B1 light
notes: both H chains altered; also called Ho Ab E333_02A
B24: GpH7-B3 variant K334_01G/GpL16-k0 (antibody, human IgG1, kappa)
heavy: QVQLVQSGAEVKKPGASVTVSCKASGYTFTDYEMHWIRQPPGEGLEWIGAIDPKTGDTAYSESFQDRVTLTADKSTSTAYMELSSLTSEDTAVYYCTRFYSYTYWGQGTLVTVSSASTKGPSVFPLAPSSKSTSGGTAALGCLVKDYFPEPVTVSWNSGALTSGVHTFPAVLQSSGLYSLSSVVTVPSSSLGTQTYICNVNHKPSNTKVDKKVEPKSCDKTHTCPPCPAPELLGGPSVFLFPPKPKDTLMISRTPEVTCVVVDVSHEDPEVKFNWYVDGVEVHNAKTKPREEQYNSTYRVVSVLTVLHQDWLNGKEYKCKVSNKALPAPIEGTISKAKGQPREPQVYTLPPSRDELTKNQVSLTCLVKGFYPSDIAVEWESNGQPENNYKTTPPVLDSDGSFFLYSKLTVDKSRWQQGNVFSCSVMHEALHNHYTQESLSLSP
light: B1 light
notes: both H chains altered; also called Ho Ab K334_01G
B25: GpH7-B3 variant T335_19Q/GpL16-k0 (antibody, human IgG1, kappa)
heavy: not shown
light: B1 light
notes: both H chains altered; also called Ho Ab T335_19Q
B26: GpH7-B3 variant I336_18N/GpL16-k0 (antibody, human IgG1, kappa)
heavy: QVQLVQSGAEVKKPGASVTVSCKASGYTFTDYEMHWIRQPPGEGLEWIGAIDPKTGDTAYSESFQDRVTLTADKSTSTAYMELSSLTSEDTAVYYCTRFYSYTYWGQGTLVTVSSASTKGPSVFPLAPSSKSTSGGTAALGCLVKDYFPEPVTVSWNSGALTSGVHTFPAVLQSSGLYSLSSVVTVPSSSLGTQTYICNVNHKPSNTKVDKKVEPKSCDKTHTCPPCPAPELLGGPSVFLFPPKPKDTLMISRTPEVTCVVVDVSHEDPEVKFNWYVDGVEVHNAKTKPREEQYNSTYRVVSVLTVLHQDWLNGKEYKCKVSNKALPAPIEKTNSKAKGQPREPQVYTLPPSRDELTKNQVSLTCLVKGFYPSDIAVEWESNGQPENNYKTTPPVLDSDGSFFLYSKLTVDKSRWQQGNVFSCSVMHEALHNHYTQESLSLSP
light: B1 light
notes: both H chains altered; also called Ho Ab I336_18N
B27: GpH7-B3 variant T335_13S/GpL16-k0 (antibody, human IgG1, kappa)
heavy: not shown
light: B1 light
notes: both H chains altered; also called Ho Ab T335_13S
B28: GpH7-B3 variant P271_01G/GpL16-k0 (antibody, human IgG1, kappa)
heavy: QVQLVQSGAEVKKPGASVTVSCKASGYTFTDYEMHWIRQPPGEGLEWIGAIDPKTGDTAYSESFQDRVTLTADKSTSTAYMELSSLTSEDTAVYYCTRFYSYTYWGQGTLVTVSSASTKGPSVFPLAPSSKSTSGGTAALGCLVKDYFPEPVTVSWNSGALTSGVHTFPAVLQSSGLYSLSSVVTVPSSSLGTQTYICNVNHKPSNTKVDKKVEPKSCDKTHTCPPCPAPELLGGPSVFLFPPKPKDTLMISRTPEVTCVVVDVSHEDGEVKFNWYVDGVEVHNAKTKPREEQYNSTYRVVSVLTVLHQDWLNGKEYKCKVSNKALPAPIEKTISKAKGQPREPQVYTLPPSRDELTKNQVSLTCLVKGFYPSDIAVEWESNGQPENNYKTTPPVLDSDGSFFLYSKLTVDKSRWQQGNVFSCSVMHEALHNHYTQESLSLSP
light: B1 light
notes: both H chains altered; also called Ho Ab P271_01G
B29: GpH7-B3 variant Q295_14T/GpL16-k0 (antibody, human IgG1, kappa)
heavy: not shown
light: B1 light
notes: both H chains altered; also called Ho Ab Q295_14T
B30: GpH7-B3 variant K334_09D/GpL16-k0 (antibody, human IgG1, kappa)
heavy: not shown
light: B1 light
notes: both H chains altered; also called Ho Ab K334_09D
B31: GpH7-B3 variant T335_20W/GpL16-k0 (antibody, human IgG1, kappa)
heavy: not shown
light: B1 light
notes: both H chains altered; also called Ho Ab T335_20W
B32: GpH7-B3 variant H268_18N/GpL16-k0 (antibody, human IgG1, kappa)
heavy: not shown
light: B1 light
notes: both H chains altered; also called Ho Ab H268_18N
B33: GpH7-B3 variant T335_07I/GpL16-k0 (antibody, human IgG1, kappa)
heavy: not shown
light: B1 light
notes: both H chains altered; also called Ho Ab T335_07I
B34: GpH7-B3 variant P238_10E/GpL16-k0 (antibody, human IgG1, kappa)
heavy: not shown
light: B1 light
notes: both H chains altered; also called Ho Ab P238_10E
B35: GpH7-B3 variant S298_14T/GpL16-k0 (antibody, human IgG1, kappa)
heavy: not shown
light: B1 light
notes: both H chains altered; also called Ho Ab S298_14T
B36: GpH7-B3 variant V266_08L/GpL16-k0 (antibody, human IgG1, kappa)
heavy: not shown
light: B1 light
notes: both H chains altered; also called Ho Ab V266_08L
B37: GpH7-B3 variant E333_09D/GpL16-k0 (antibody, human IgG1, kappa)
heavy: not shown
light: B1 light
notes: both H chains altered; also called Ho Ab E333_09D
B38: GpH7-B3 variant T335_10E/GpL16-k0 (antibody, human IgG1, kappa)
heavy: not shown
light: B1 light
notes: both H chains altered; also called Ho Ab T335_10E
B39: GpH7-B3 variant L234_20W/GpL16-k0 (antibody, human IgG1, kappa)
heavy: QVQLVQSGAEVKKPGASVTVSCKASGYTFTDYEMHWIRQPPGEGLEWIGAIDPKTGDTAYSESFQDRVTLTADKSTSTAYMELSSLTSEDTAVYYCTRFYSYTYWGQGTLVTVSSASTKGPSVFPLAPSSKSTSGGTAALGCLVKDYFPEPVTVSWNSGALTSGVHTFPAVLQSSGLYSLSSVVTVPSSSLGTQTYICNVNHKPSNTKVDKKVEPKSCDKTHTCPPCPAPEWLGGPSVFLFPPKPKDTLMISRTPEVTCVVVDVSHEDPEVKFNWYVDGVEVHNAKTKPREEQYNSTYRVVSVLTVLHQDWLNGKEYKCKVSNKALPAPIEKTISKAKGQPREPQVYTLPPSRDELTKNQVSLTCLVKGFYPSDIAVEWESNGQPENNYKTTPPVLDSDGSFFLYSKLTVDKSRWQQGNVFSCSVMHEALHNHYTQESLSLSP
light: B1 light
notes: both H chains altered; also called Ho Ab L234_20W
B40: GpH7-B3 variant K326_07I/GpL16-k0 (antibody, human IgG1, kappa)
heavy: not shown
light: B1 light
notes: both H chains altered; also called Ho Ab K326_07I
B41: GpH7-B3 variant E333_03V/GpL16-k0 (antibody, human IgG1, kappa)
heavy: not shown
light: B1 light
notes: both H chains altered; also called Ho Ab E333_03V
B42: GpH7-B3 variant S337_18N/GpL16-k0 (antibody, human IgG1, kappa)
heavy: not shown
light: B1 light
notes: both H chains altered; also called Ho Ab S337_18N
B43: GpH7-B3 variant G236_15Y/GpL16-k0 (antibody, human IgG1, kappa)
heavy: not shown
light: B1 light
notes: both H chains altered; also called Ho Ab G236_15Y
B44: GpH7-B3 variant E333_13S/GpL16-k0 (antibody, human IgG1, kappa)
heavy: not shown
light: B1 light
notes: both H chains altered; also called Ho Ab E333_13S
B45: GpH7-B3 variant K326_08L/GpL16-k0 (antibody, human IgG1, kappa)
heavy: not shown
light: B1 light
notes: both H chains altered; also called Ho Ab K326_08L
B46: GpH7-B3 variant I336_08L/GpL16-k0 (antibody, human IgG1, kappa)
heavy: not shown
light: B1 light
notes: both H chains altered; also called Ho Ab I336_08L
B47: GpH7-B3 variant I336_03V/GpL16-k0 (antibody, human IgG1, kappa)
heavy: not shown
light: B1 light
notes: both H chains altered; also called Ho Ab I336_03V
B48: GpH7-B3 variant I332_01G/GpL16-k0 (antibody, human IgG1, kappa)
heavy: not shown
light: B1 light
notes: both H chains altered; also called Ho Ab I332_01G
B49: GpH7-B3 variant S267_02A/GpL16-k0 (antibody, human IgG1, kappa)
heavy: not shown
light: B1 light
notes: both H chains altered; also called Ho Ab S267_02A
B50: GpH7-B3 variant I332_06M/GpL16-k0 (antibody, human IgG1, kappa)
heavy: not shown
light: B1 light
notes: both H chains altered; also called Ho Ab I332_06M
B51: GpH7-B3 variant S324_02A/GpL16-k0 (antibody, human IgG1, kappa)
heavy: not shown
light: B1 light
notes: both H chains altered; also called Ho Ab S324_02A
B52: GpH7-A5/GpH7-B3 variant A330_05P/GpL16-k0 (antibody, human IgG1, kappa)
heavy 1: not shown
heavy 2: not shown
light: B1 light
notes: one H chain altered; also called He Ab A330_05P
B53: GpH7-A5/GpH7-B3 variant E333_03V/GpL16-k0 (antibody, human IgG1, kappa)
heavy 1: not shown
heavy 2: not shown
light: B1 light
notes: one H chain altered; also called He Ab E333_03V
B54: GpH7-A5/GpH7-B3 variant E333_02A/GpL16-k0 (antibody, human IgG1, kappa)
heavy 1: not shown
heavy 2: not shown
light: B1 light
notes: one H chain altered; also called He Ab E333_02A
B55: GpH7-A5/GpH7-B3 variant A330_07I/GpL16-k0 (antibody, human IgG1, kappa)
heavy 1: not shown
heavy 2: not shown
light: B1 light
notes: one H chain altered; also called He Ab A330_07I

One test deals with T1, FcγRIIIa extracellular domain with C-terminal His tag (human, UniProt P08637 17-208). Nature of the test: SPR (Biacore), both H chains altered; HoCon Ab GpH7-B3/GpL16-k0 = 100.
T1 sequence (P08637 17-208): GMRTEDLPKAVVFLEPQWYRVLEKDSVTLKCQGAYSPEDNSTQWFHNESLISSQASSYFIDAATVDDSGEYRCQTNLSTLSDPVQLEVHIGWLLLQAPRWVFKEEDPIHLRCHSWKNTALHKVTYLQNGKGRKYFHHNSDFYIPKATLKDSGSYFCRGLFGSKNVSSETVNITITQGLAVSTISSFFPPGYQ
For B1, the Ho/Con_3a was found to be 118%. With B2, the Ho/Con_3a was found to be 104%. On the same count and under the same terms, next, B3: 90.9%. On to B4, for which the Ho/Con_3a was 97.2%. Consider B5, for which the Ho/Con_3a was determined as 106%. Turning to B6, the Ho/Con_3a stood at 100%. Take B7: the Ho/Con_3a was 95.6%. On the same count and under the same terms, next, B8: 91.5%; B9: 103%; B10: 87.8%. With B11, the Ho/Con_3a was -0.1%.

With B12, the Ho/Con_3a turned out to be 100%.

Take B13: the Ho/Con_3a was 58.3%.

Turning to B14, the Ho/Con_3a was found to be 52.8%. For the molecule B15, the Ho/Con_3a is 99%.

Regarding B16, the Ho/Con_3a is 99.5%.

Consider B17, for which the Ho/Con_3a was 107%. As for B18, the Ho/Con_3a amounted to 98.2%. The same measure, in the same setting: next, B19: 64.7%.

As for B20, the Ho/Con_3a is 87.1%. For the molecule B21, the Ho/Con_3a turned out to be 49.9%. Regarding B22, the Ho/Con_3a was 160%. With B23, the Ho/Con_3a stood at 93.3%. In the case of B24, the Ho/Con_3a came out at 104%. In the case of B25, the Ho/Con_3a worked out at 97.7%. Still for that read-out and setting: next, B26: 101%. On the same count and under the same terms, next, B27: 97.6%; B28: 88%; B29: 108%. Consider B30, for which the Ho/Con_3a came out at 150%. Regarding B31, the Ho/Con_3a came to 91.8%. The same measure, in the same setting: next, B32: 90.3%; B33: 107%; B34: 0.8%. B35: the Ho/Con_3a amounted to 107%. As to B36, the Ho/Con_3a came to 90.5%. As to B37, the Ho/Con_3a was 109%. Turning to B38, the Ho/Con_3a is 102%. Regarding B39, the Ho/Con_3a worked out at 37.1%. For the molecule B40, the Ho/Con_3a was determined as 134%. As for B41, the Ho/Con_3a is 86.5%. On the same count and under the same terms, next, B42: 102%; B43: 41.6%; B44: 95.1%.

Regarding B45, the Ho/Con_3a worked out at 114%. For the molecule B46, the Ho/Con_3a worked out at 95.8%. For B47, the Ho/Con_3a was determined as 110%. As to B48, the Ho/Con_3a was 104%. Still for that read-out and setting: next, B49: 145%. For B50, the Ho/Con_3a was found to be 95.4%. Same read-out and setting: next, B51: 99.8%.

In the next test the target is T1, FcγRIIIa extracellular domain with …. Nature of the test: SPR (Biacore), one H chain altered; HeCon Ab GpH7-A5/GpH7-B3/GpL16-k0 = 100.
In turn, B52 showed a He/Con_3a of 155%. In turn, B53 gave a He/Con_3a of 103%. In turn, B54 returned a He/Con_3a of 105%.

In turn, B55 had a He/Con_3a of 103%.
